# From PMC9352680, “A comprehensive thermodynamic model for RNA binding by the Saccharomyces cerevisiae Pumilio protein PUF4”
# T1: PUF4 RNA-binding domain (Saccharomyces cerevisiae, UniProt P25339 537-888)
# T1 sequence: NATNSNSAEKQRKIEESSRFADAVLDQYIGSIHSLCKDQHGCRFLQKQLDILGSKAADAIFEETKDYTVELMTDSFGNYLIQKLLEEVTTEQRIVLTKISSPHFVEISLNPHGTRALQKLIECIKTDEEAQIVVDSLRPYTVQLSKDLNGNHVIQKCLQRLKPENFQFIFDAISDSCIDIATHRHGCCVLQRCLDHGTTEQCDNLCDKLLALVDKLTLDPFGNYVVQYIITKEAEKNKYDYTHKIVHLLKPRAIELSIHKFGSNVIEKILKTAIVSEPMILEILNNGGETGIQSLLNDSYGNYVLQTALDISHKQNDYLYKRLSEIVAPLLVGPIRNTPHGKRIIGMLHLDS
# Biological target: T1, PUF4 RNA-binding domain
# Assay: Mg; RNA-MaP; 20 mM Na-HEPES pH 7.4, 30 mM KOAc, 0.75 mM MgCl2, 0.1% Tween-20, 5% glycerol, 0.1 mg/mL BSA, 2 mM DTT; 25 C; 0.0125-409.6 nM protein
# Conditions: tags: N-His6-TEV cleaved; C-SNAP kept, Cy3B-labelled; label: tethered on chip by stalled RNA polymerase
row,Binder,Kd [nM]
1,UCUCUUUGUAUCAGUAUCUCUU (ssRNA) [Ib_S1_P5E.1_K5.1_C5.1_H5.1_A5.1_[T6C]_F5.1_[T8G]_T5.1],27.9
2,UCUCUUUGUGUUAUUAUCUCUU (ssRNA) [Ia_S1_P5E.1_K5.1_C5.1_H5.1_[A4G]_A5.1_F5.1_T5.1],30.7
3,UCUCUUUGUAUAAGUAUCUCUU (ssRNA) [Ic_S1_P5E.1_K5.1_C5.1_H5.1_A5.1_[T6A]_F5.1_[T8G]_T5.1],54
4,UCUCUUUGUAUGACUAUCUCUU (ssRNA) [Ib_S1_P5E.1_K5.1_C5.1_H5.1_A5.1_[T6G]_F5.1_[T8C]_T5.1],31.2
5,Id_ii_S2_P5E.2_K5.1_C5.2_[C-2G]_[T-1C]_H5.1_A5.1_F5.1_T5.2_[A12C] (ssRNA) RNA: UUUGAUUAAUAUGAUAUCGUUCUUUCUGCUGUAUUAUUAUCUUCUUUCUCGAUAUCAUAUUAAUCUUU,11.2
6,Id_ii_S2_P5E.2_K5.1_C5.2_[C-2A]_[T-1A]_H5.1_A5.1_F5.1_T5.2_[T11A]_[A12T] (ssRNA) RNA: UUUGAUUAAUAUGAUAUCGUUCUUUCUAAUGUAUUAUUAAUUUCUUUCUCGAUAUCAUAUUAAUCUUU,20.4
7,Id_ii_S2_P5E.2_K5.1_C5.2_[C-2T]_[T-1A]_H5.1_A5.1_F5.1_T5.2_[A12C] (ssRNA) RNA: UUUGAUUAAUAUGAUAUCGUUCUUUCUUAUGUAUUAUUAUCUUCUUUCUCGAUAUCAUAUUAAUCUUU,4.16
8,Id_ii_S2_P5E.2_K5.1_C5.2_[C-2T]_H5.1_A5.1_F5.1_T5.2_[A12C] (ssRNA) RNA: UUUGAUUAAUAUGAUAUCGUUCUUUCUUUUGUAUUAUUAUCUUCUUUCUCGAUAUCAUAUUAAUCUUU,1.86
9,Id_ii_S2_P5E.2_K5.1_C5.2_[C-2A]_H5.1_A5.1_F5.1_T5.2_[T11A]_[A12C] (ssRNA) RNA: UUUGAUUAAUAUGAUAUCGUUCUUUCUAUUGUAUUAUUAACUUCUUUCUCGAUAUCAUAUUAAUCUUU,6.07
10,Id_ii_S2_P5E.2_K5.1_C5.2_[C-2T]_H5.1_A5.1_F5.1_T5.2_[T11A] (ssRNA) RNA: UUUGAUUAAUAUGAUAUCGUUCUUUCUUUUGUAUUAUUAAAUUCUUUCUCGAUAUCAUAUUAAUCUUU,5.96
11,Id_ii_S2_P5E.2_K5.1_C5.2_[C-2A]_[T-1G]_H5.1_A5.1_F5.1_T5.2_[T11A]_[A12T] (ssRNA) RNA: UUUGAUUAAUAUGAUAUCGUUCUUUCUAGUGUAUUAUUAAUUUCUUUCUCGAUAUCAUAUUAAUCUUU,7.45
12,Id_ii_S2_P5E.2_K5.1_C5.2_[C-2T]_[T-1A]_H5.1_A5.1_F5.1_T5.2_[T11A] (ssRNA) RNA: UUUGAUUAAUAUGAUAUCGUUCUUUCUUAUGUAUUAUUAAAUUCUUUCUCGAUAUCAUAUUAAUCUUU,12.2
13,Id_ii_S2_P5E.2_K5.1_C5.2_[C-2T]_[T-1C]_H5.1_A5.1_F5.1_T5.2_[T11A]_[A12G] (ssRNA) RNA: UUUGAUUAAUAUGAUAUCGUUCUUUCUUCUGUAUUAUUAAGUUCUUUCUCGAUAUCAUAUUAAUCUUU,51
14,Id_ii_S2_P5E.2_K5.1_C5.2_[C-2T]_[T-1G]_H5.1_A5.1_F5.1_T5.2_[A12T] (ssRNA) RNA: UUUGAUUAAUAUGAUAUCGUUCUUUCUUGUGUAUUAUUAUUUUCUUUCUCGAUAUCAUAUUAAUCUUU,1.42
15,Id_ii_S2_P5E.2_K5.1_C5.2_[C-2A]_[T-1A]_H5.1_A5.1_F5.1_T5.2_[T11A]_[A12C] (ssRNA) RNA: UUUGAUUAAUAUGAUAUCGUUCUUUCUAAUGUAUUAUUAACUUCUUUCUCGAUAUCAUAUUAAUCUUU,19
16,Id_ii_S2_P5E.2_K5.1_C5.2_[C-2A]_H5.1_A5.1_F5.1_T5.2_[T11A]_[A12T] (ssRNA) RNA: UUUGAUUAAUAUGAUAUCGUUCUUUCUAUUGUAUUAUUAAUUUCUUUCUCGAUAUCAUAUUAAUCUUU,5.79
17,Id_ii_S2_P5E.2_K5.1_C5.2_[C-2T]_[T-1A]_H5.1_A5.1_F5.1_T5.2_[T11G]_[A12T] (ssRNA) RNA: UUUGAUUAAUAUGAUAUCGUUCUUUCUUAUGUAUUAUUAGUUUCUUUCUCGAUAUCAUAUUAAUCUUU,4.78
18,Id_ii_S2_P5E.2_K5.1_C5.2_[C-2G]_H5.1_A5.1_F5.1_T5.2_[T11A]_[A12T] (ssRNA) RNA: UUUGAUUAAUAUGAUAUCGUUCUUUCUGUUGUAUUAUUAAUUUCUUUCUCGAUAUCAUAUUAAUCUUU,3.86
19,Id_ii_S2_P5E.2_K5.1_C5.2_[C-2T]_[T-1C]_H5.1_A5.1_F5.1_T5.2_[T11A] (ssRNA) RNA: UUUGAUUAAUAUGAUAUCGUUCUUUCUUCUGUAUUAUUAAAUUCUUUCUCGAUAUCAUAUUAAUCUUU,4.24
20,Id_ii_S2_P5E.2_K5.1_C5.2_[C-2T]_[T-1G]_H5.1_A5.1_F5.1_T5.2_[T11A] (ssRNA) RNA: UUUGAUUAAUAUGAUAUCGUUCUUUCUUGUGUAUUAUUAAAUUCUUUCUCGAUAUCAUAUUAAUCUUU,1.72
21,Id_ii_S2_P5E.2_K5.1_C5.2_[C-2G]_H5.1_A5.1_F5.1_T5.2_[T11G]_[A12T] (ssRNA) RNA: UUUGAUUAAUAUGAUAUCGUUCUUUCUGUUGUAUUAUUAGUUUCUUUCUCGAUAUCAUAUUAAUCUUU,3.05
22,Id_ii_S2_P5E.2_K5.1_C5.2_[C-2A]_[T-1C]_H5.1_A5.1_F5.1_T5.2_[T11A]_[A12C] (ssRNA) RNA: UUUGAUUAAUAUGAUAUCGUUCUUUCUACUGUAUUAUUAACUUCUUUCUCGAUAUCAUAUUAAUCUUU,5.62
